Test results reported in publication PMC6497274, “Isolation of nanobodies against Xenopus embryonic antigens using immune and non-immune phage display libraries” (PLoS ONE, 2019).
Positions count from the first letter of the chain named.

Key:
BSA = target: T1, BSA (Bos taurus, UniProt P02769); assay: ELISA; 96-well plate coated with 1 μg/ml Ndel1-MBP or BSA; purified nanobodies at 2 μg/ml in 2% skim milk in PBS/0.05% Tween-20, 4 h at room temperature; detected by anti-His-tag antibody; settings: both partners purified
T1 construct: BSA (serum albumin), negative control coating in ELISA

Npm2 (nucleoplasmin) [1] = target: T2, Npm2 (nucleoplasmin) (Xenopus laevis, UniProt P05221); assay: far-Western, overlay or dot blot; immunoblot: Xenopus embryo lysates of different stages on 10% SDS-PAGE, PVDF membrane probed overnight at 4°C with purified His-tagged nanobody (0.2-3 μg/ml), detected by anti-His6 antibody; settings: one partner purified
T2 construct: predicted molecular weight 22 kDa, found as a 170 kDa band in SDS-PAGE; it was not measured here; also called 170 kDa band; source: endogenous, Xenopus laevis embryo lysate; copies: 10

Npm2 (nucleoplasmin) [2] = target: T2, Npm2 (nucleoplasmin); assay: affinity purification with mass spectrometry; purified His-tagged nanobody incubated with Xenopus embryo lysate (1% Triton X100 lysis buffer), captured on His60 Ni Superflow resin overnight at 4°C, SDS-PAGE, SimplyBlue staining, 170 kDa band cut out for LC-MS/MS; settings: one partner purified

T1 sequence (P02769 25-607): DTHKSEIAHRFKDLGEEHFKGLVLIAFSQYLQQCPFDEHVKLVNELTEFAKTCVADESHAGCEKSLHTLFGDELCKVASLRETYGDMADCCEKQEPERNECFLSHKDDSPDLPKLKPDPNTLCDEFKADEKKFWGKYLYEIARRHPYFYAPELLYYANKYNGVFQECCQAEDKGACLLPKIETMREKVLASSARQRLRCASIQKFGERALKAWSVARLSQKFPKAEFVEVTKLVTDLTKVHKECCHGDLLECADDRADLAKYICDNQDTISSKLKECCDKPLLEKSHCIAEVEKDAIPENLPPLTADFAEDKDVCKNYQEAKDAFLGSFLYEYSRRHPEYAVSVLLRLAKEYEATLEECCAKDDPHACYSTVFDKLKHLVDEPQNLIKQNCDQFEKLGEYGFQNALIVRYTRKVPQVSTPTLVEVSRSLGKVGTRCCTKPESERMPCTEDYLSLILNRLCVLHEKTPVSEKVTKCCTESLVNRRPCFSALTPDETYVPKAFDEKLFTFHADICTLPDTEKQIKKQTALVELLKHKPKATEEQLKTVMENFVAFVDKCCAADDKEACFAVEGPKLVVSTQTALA
T2 sequence (P05221 whole entry): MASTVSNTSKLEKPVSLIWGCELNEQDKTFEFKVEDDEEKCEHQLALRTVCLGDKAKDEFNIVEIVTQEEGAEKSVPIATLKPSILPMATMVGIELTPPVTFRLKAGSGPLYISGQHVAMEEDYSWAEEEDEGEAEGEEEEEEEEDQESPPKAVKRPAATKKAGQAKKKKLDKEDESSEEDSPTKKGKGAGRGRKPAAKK

B1: NbH3 (VHH)
VHH: EVKLQESGGGLAQSGGSLRLSCAPQLGAHTIVAMGWYRQPPDSQREFVAMLFANGITRYNEAVKGRFTISRDDAKNTMYLQMNNLKPEDTAVYYCKIYDHSIMTDYWGQGTQVTVSS
notes: nanobody from the semi-synthetic non-immune llama library Nomad#1; His6-tagged alkaline phosphatase fusion from pecan16; source: E. coli BL21Star periplasm (pecan16), purified (IMAC)
B1: no binding (tested: 2 μg/ml) (BSA).

B2: NbN39 (VHH)
VHH: VQLQASGGGLVQAGGSLRLSCTFSGGTFNGRNMGWFRQAPGKEREFAATISASGGRTYYAESVLGRFTISRDNARNTVYLQMNNLTPEDTAVYFCAAKRPTRLSENYDYKTENDYDYWGQGTQVTVS
notes: nanobody from the immune llama library; Nucleus-staining nanobody; used as negative control in the Ndel1 ELISA; source: bacterial periplasm (pecan126 phagemid clone), purified (IMAC)
B2: binds (Npm2 (nucleoplasmin) [1]).

B3: NbE9 (VHH)
VHH: QVKLQESGGGSVQHGGSLRLSCVASGLSFSNHWMYWVRQAQGKGLEWVSSINPSGSFTSYTDSAKGRFTISKANDGHTVYLQMNNLKPEDTGVYYCGLGSWSELEYSYSYWGRGTQVTVSS
notes: nanobody from the semi-synthetic non-immune llama library Nomad#1; His6-tagged alkaline phosphatase fusion from pecan16; also called AP-NbE9; 6His-AP-NbE9; source: E. coli BL21Star periplasm (pecan16), purified (IMAC); not shown: alkaline phosphatase, C-terminal, kept
B3: no binding (tested: 2 μg/ml) (BSA).

B4: NbE7 (VHH)
VHH: B3 VHH with Q1K, K3Q, E6A, S11L, H14P, R19Q, H32Y
notes: nanobody from the semi-synthetic non-immune llama library Nomad#1; His6-tagged alkaline phosphatase fusion from pecan16; also called AP-NbE7; source: E. coli BL21Star periplasm (pecan16), purified (IMAC); not shown: alkaline phosphatase, C-terminal, kept
B4: no binding (tested: 2 μg/ml) (BSA).

B5: NbG6 (VHH)
VHH: DVQLQASGGGLVQPGASLRLSCVSTRNTFSIDPMSWYRRAPGKGLEWVSGISNRGGSTSYADSVKGRFTISRDNIKSTLYLQMNSLKPEDTAVYYCNADASRWGSWGQGTQVTVSS
notes: as for B1
B5: no binding (tested: 2 μg/ml) (BSA).

B6: NbG12 (VHH)
VHH: VQLQASGGGLVQAGSSRRLYCAFSGDTFNGRPMGWFRQAPGKEREFVATISASGGRTYYAGSVLGRFTISRDNTRNTVSLQMNNLTPEDTAVYYCAAKRPTALSDNYDYKTENEYNYWGQGTQVTVS
notes: nanobody from the immune llama library; Nucleus-staining nanobody; source: bacterial periplasm (pecan126 phagemid clone), purified (His60-Ni-Superflow resin)
B6: binds (Npm2 (nucleoplasmin) [2]).

B7: NbE2 (VHH)
VHH: QVKLQQSGGGSVQVGGSLRLSCTASGSAFIINTMSWYRRAPGKQRELVATITRRGTTNYADSVKGRFTISRDNAENTVDLHMNSLKPEDTAVYYCKGYRADWMTDYWGQGTQVTVSS
notes: as for B1
B7: no binding (tested: 2 μg/ml) (BSA).
